Experimental data from US20110200585A1.
Numbering of substitutions follows the chain as printed. “And” between values parts separate entries of the source, which are not always exact repeats. Equal values may be shown once.

Columns and labels:
[1] = target: human CD127 ECD (human) (UniProt P16871); test: SPR, BIAcore 3000; antibody captured on anti-human IgG (Fc), CD127 ECD 16-512 nM as analyte, 1:1 Langmuir fit
[2] = target: IL7R (analyte of the CDRH3 variant assays) (Homo sapiens (Human)) (UniProt P16871); test: SPR competition, BIAcore; IL7R 64 nM pre-incubated 3 h with antibody 1-256 nM, run over immobilised IL7 (competitor); run 1
[3] = target: IL7R (analyte of the CDRH3 variant assays) (Homo sapiens (Human)) (UniProt P16871); test: SPR, BIAcore T100; antibody captured on anti-human IgG (CM3), IL-7R 1-256 nM as analyte, 1:1 fit, 25 C
[4] = target: IL7R (analyte of the CDRH3 variant assays) (Homo sapiens (Human)) (UniProt P16871); test: SPR competition, BIAcore; IL7R 64 nM pre-incubated 3 h with antibody 0.25-256 nM, run over immobilised IL7 (competitor); run 2
[5] = target: IL7R (analyte of the CDRH3 variant assays) (Homo sapiens (Human)) (UniProt P16871); test: SPR, BIAcore 3000; antibody captured on anti-human IgG (CM5), IL7R 1-64 nM as analyte, 1:1 fit, 25 C
[6] = target: human CD127 ECD (human) (UniProt P16871); test: SPR, BIAcore 3000; antibody captured on anti-human IgG (Fc), CD127 ECD as analyte; the column head says M, but kd/ka gives 1.9e-8 M, so nM is meant
[7] = target: human CD127 ECD (human) (UniProt P16871); test: SPR, BIAcore 3000; antibody captured on anti-human IgG (Fc), CD127 ECD as analyte; the column head says M, but kd/ka gives 2.8e-8 M, so nM is meant
[8] = target: human CD127 ECD (human) (UniProt P16871); test: SPR, BIAcore 3000; antibody captured on anti-human IgG (Fc), CD127 ECD as analyte; the column head says M, but kd/ka gives 1.5e-8 M, so nM is meant
[9] = target: human CD127 ECD (human) (UniProt P16871); test: SPR, BIAcore 3000; antibody captured on anti-human IgG (Fc), CD127 ECD as analyte; the column head says M, but kd/ka gives 1.7e-8 M, so nM is meant

B1: 1A11 Chimera (antibody, human IgG1, V domains shown)
VH: EVQLQQSGPELLKPGASMKISCKASGYSFTGYTMNWVKQSHGKNLEWIGLINPYNGVTSYNQKFKGKATLTVAKSSSTAYMELLSLTSEDSAVYYCARGDGNYWYFDVWGAGTTVTVSS
VL: EIVLTQSPAITAASLGQKVTITCSASSSVTYMHWYQQKSGTSPKPWIYEISKLASGVPVRFSGSGSGTSYSLTISSMEAEDAAIYYCQEWNYPYTFGGGTKLEIK
B1 showed a Kd [1] of 3.22 nM, a koff [1] of 0.000298 s⁻¹ and a kon [1] of 92600 M⁻¹ s⁻¹.

B2: 1A11 H3L6 (antibody, V domains shown)
VH: QVQLVQSGAEVKKPGASVKVSCKASGYTFTGYTMNWVRQAPGQGLEWMGLINPYNGVTSYNQKFKGRVTLTRDTSISTAYMELSRLRSDDTAVYYCARGDGNYWYFDVWGQGTTVTVSS
VL: EIVLTQSPATLSLSPGERATLSCSASSSVTYMHWYQQKPGQAPRPWIYEISKLASGVPARFSGSGSGTDYTLTISSLEPEDFAVYYCQEWNYPYTFGGGTKVEIK
B2 was tested, and the Kd [1] was 155 nM, the koff [1] was 0.00282 s⁻¹ and the kon [1] was 18200 M⁻¹ s⁻¹.

B3: BPC4401 (antibody, V domains shown)
VH: B2 VH with F106H
VL: B2 VL with W46L, V57I, Y70F
Binder B3 has an IC50 [2] of 14.8 nM, a Kd [3] of 0.034 nM and a koff [3] of 3.06e-05 s⁻¹. For the same binder, the kon [3] was 910000 M⁻¹ s⁻¹, the IC50 [4] was 14.9 nM and 15.2 nM and the Kd [5] was 0.582 nM. It also gave a koff [5] of 0.000196 s⁻¹ and a kon [5] of 337000 M⁻¹ s⁻¹.

B4: BPC4402 (antibody, V domains shown)
VH: B2 VH with F106I
VL: B2 VL with W46L, V57I, Y70F
B4 gave an IC50 [2] of 15.2 nM, a Kd [3] of 0.04 nM and a koff [3] of 3.32e-05 s⁻¹. For the same binder, the kon [3] was 826000 M⁻¹ s⁻¹, the Kd [5] was 0.668 nM and the koff [5] was 0.0002 s⁻¹. For the same binder, the kon [5] was 300000 M⁻¹ s⁻¹.

B5: 6A3 H4-61_6L27 (antibody, V domains shown)
VH: QVQLQESGPGLVKPSETLSLTCTVSGYSVSTDYAWNWIRQPPGKGLEWIGYIFYSGSTTYTPSLKSRVTISRDTSKNQFSLKLSSVTAADTAVYYCARGGYDVNYFDYWGQGTTVTVSS
VL: DIQMLQSPSSLSASVGDRVTITCLASQTIGYWLAWYQQKPGKAPKLLIYAATRLADGVPSRFSGSGSGTMFTLTISSLQPEDFATYYCQQFFSYPWTFGGGTKVEIK
Work on B5 yielded a Kd [6] of 19 nM, a koff [1] of 0.000299 s⁻¹ and a kon [1] of 16000 M⁻¹ s⁻¹.

B6: 6A3 H4-61_7L27 (antibody, V domains shown)
VH: B5 VH with S30T
VL: B5 VL
B6 was tested, and the koff [1] was 0.00104 s⁻¹, the kon [1] was 37700 M⁻¹ s⁻¹ and the Kd [7] was 28 nM.

B7: 6A3 H4-61_8L27 (antibody, V domains shown)
VH: B5 VH with S30T, V68I
VL: B5 VL
B7 showed a koff [1] of 0.00037 s⁻¹, a kon [1] of 24300 M⁻¹ s⁻¹ and a Kd [8] of 15 nM.

B8: 6A3 H4-61_9L27 (antibody, V domains shown)
VH: B5 VH with S30T, I49M, V68I
VL: B5 VL
B8 gave a Kd [9] of 18 nM, a koff [1] of 0.00122 s⁻¹ and a kon [1] of 69900 M⁻¹ s⁻¹.

B9: 1A11 H3L5 (antibody, V domains shown)
VH: B2 VH
VL: B2 VL with V57I
B9 showed a Kd [1] of 207 nM, a koff [1] of 0.00607 s⁻¹ and a kon [1] of 29400 M⁻¹ s⁻¹.
